T1: RbcL (Rubisco large subunit) from Synechocystis sp. PCC6803, unfolded, isolated from inclusion bodies (Synechocystis sp. PCC6803, UniProt P54205 1-470)
T1 chain: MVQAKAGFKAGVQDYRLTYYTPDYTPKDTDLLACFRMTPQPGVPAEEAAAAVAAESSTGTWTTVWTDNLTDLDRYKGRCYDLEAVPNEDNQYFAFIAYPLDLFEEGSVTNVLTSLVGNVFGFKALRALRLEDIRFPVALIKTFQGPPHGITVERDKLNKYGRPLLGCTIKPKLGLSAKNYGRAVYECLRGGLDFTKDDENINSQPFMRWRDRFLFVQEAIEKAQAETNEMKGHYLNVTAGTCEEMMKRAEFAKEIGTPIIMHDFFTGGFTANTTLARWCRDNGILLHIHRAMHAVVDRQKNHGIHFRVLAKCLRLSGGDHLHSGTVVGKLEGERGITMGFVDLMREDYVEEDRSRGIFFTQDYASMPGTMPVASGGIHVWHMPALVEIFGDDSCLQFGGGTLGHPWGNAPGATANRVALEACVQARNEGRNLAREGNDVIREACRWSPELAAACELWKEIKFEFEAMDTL

B1: DnaJ Sll1384 from Synechocystis sp. PCC6803, His-tagged (natural protein, UniProt P74157 1-314, looked up)
chain: MSSFPIKQGLFNYDVVDHHAILGCPLDATPEEIRKSYLKIAFQLHPDTSKATNEEEQALAAKLFSKFVNPAYEVLSRENDRKEHLLIIQQTVSNLASIGQPSFSSAESQKLQGAKQNLELVYRKVVTPLSKGLYEDFKTVFRKIAQVSEYNLIFLMVKGENASARPVFQTIASSKETVPPVVSGRSPQGPTPTPPINNPPAEELSPFEKSLRRAQENFDRRQYEKAIAELKSALKTDPKNAQAHCLLGMAYLKNNMMTMAKVHIGSAVKLDPNDPKVMAAKKELAKHTSSGSSQEGAKSSQGGFLGGLFGGKKK
modifications: RED-tris-NTA dye on the His-tag (MST only)
notes: DnaJ homolog Sll1384 (J domain plus C-terminal TPR domain), Synechocystis sp; PCC6803; gene amplified from total DNA with primers Fwsll1384 (NdeI-ATG) and Rvsll1384 (stop codon), cloned into pET16b; also called DnaJ Sll384; source: E. coli Lemo21, purified (Ni-NTA HisTrap, dialysis); not shown: His-tag, N-terminal, kept
B2: RbcL (Rubisco large subunit) from Synechocystis sp. PCC6803, unfolded, isolated from inclusion bodies (natural protein, UniProt P54205 1-470, looked up)
chain: T1 chain
notes: Ribulose-1,5-bisphosphate carboxylase/oxygenase large subunit (RbcL), Synechocystis sp; PCC6803; used denatured/unfolded; Used as an unfolded protein diluted from GdnHCl; also called unfolded RbcL; denatured RbcL peptide; source: E. coli BL21 (DE3), purified from inclusion bodies, solubilized in 4 M GdnHCl

Columns and labels:
[1] = biological target: T1, RbcL (Rubisco large subunit) from …; assay: MST; with ATP
[2] = biological target: B2; assay: MST; His-tagged chaperone labelled with RED-tris-NTA (4 µM or 200 nM) and unfolded RbcL in PBS-T (0.1% Tween 20), with ATP; Monolith NT.115 pico; 1:1 binding model; details: both partners purified
[3] = biological target: T2, DnaK2 from Synechocystis sp. PCC6803, His-tagged (Synechocystis sp. PCC6803, UniProt P22358 1-636, RED-tris-NTA dye on the His-tag (MST only)); assay: as above; details: both partners purified
T2 construct: Hsp70 chaperone DnaK2, Synechocystis sp; PCC6803; gene amplified from total DNA with primers Fwdnak2 (NdeI-ATG) and Rvdnak2 (stop codon), cloned into pET16b; source: E. coli Lemo21, purified (Ni-NTA HisTrap, Superdex 200); not shown: His-tag, N-terminal, kept

[4] = biological target: T3, DnaK2 together with DnaJ Sll1384 (both tested chaperones, with ATP) in the MST titration (Synechocystis sp. PCC6803, UniProt P22358 1-636; P74157 1-314); assay: as above; details: both partners purified
T3 construct: DnaK2, Synechocystis sp; PCC6803, as the chain of m3; DnaJ Sll1384, Synechocystis sp; PCC6803, as the chain of m2; also called DnaK + DnaJ; source: E. coli Lemo21, each purified (Ni-NTA; DnaK2 also Superdex 200), mixed
T3 sequence (P22358 whole entry, one chain of several): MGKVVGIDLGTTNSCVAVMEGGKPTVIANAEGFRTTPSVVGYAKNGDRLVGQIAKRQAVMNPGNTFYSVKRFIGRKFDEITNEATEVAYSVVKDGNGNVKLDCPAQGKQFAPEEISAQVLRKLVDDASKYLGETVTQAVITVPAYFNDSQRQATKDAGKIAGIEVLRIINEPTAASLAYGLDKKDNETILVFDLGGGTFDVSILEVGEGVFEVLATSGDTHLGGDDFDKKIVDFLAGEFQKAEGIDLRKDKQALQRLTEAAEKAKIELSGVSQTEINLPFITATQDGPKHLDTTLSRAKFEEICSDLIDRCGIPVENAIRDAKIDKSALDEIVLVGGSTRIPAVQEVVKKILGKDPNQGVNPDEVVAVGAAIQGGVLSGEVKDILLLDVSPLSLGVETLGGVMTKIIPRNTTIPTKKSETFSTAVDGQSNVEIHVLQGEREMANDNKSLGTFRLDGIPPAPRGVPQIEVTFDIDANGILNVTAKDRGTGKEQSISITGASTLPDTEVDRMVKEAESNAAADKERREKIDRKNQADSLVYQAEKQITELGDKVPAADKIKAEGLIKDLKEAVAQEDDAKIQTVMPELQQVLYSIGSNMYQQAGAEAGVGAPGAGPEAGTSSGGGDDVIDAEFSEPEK

T2 sequence (P22358 whole entry): as the sequence (P22358 whole entry, one chain of several) above

Row | Kd [1] [nM] | Kd [2] [nM] | Kd [3] [nM] | Kd [4] [nM] | Binder
1 | 1.36 | 1360 ± 2760 |  |  | B1
2 |  |  | 6050 ± 3410 | 31.1 ± 1.17 | B2

— PMC9948308, “DnaK and DnaJ proteins from Hsp70/40 family are involved in Rubisco biosynthesis in Synechocystis sp. PCC6803 and sustain the enzyme assembly in a heterologous system” (BMC Plant Biology, 2023)
